Results reported in article doi:10.1101/2020.11.08.373522, “The DEAD-box RNA helicase Ded1 from yeast is associated with the signal recognition particle (SRP), and its enzymatic activity is regulated by SRP21” (bioRxiv, 2020).

T1: Recombinant His-tagged SRP21 (S. cerevisiae, UniProt P32342 1-167)
T1 construct: SRP21 of the yeast signal recognition particle; subcloned into the NdeI and XhoI sites of pET22b; source: E. coli Rosetta (DE3), pET22b, purified (Ni-NTA)
T1 sequence (looked up): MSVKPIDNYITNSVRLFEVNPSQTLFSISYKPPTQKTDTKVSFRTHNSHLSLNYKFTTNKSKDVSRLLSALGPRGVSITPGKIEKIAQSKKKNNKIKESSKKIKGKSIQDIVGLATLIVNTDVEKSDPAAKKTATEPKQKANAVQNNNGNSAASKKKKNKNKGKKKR


Tests used:
Conditions in all cases: both partners purified
Recombinant Ded1-His [1] = molecular target: T2, Recombinant Ded1-His (S. cerevisiae, UniProt P06634 1-604); assay: co-IP; as a3 but purified Ded1 with combinations of purified SRP proteins (SRP21 with SRP14; SRP54 with Sec65; SRP14, SRP21, SRP54 and Sec65 together); recovered with Ded1-specific IgG on protein A-Sepharose beads; SDS-PAGE, Coomassie blue
T2 construct: Ded1, DEAD-box RNA helicase of budding yeast, wild type, recombinant; also called purified Ded1
T2 sequence (P06634 whole entry): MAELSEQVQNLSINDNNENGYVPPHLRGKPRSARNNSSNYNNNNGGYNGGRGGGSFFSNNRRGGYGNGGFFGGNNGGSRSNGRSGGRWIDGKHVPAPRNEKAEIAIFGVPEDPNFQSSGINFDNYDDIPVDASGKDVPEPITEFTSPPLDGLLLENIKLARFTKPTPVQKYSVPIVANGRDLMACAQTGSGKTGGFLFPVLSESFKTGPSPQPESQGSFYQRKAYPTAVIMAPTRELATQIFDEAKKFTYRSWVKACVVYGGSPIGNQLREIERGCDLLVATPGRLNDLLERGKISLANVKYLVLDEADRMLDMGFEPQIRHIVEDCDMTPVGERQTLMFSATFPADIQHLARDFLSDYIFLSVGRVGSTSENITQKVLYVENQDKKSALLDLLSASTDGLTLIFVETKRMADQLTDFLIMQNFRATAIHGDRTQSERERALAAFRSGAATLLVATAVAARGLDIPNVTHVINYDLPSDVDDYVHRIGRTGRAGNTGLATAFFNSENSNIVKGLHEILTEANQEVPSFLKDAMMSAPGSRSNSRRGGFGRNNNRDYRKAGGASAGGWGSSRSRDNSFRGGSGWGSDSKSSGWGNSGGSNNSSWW

[2] = molecular target: T1, Recombinant His-tagged SRP21; assay: as above
Recombinant Ded1-His [3] = molecular target: T2, Recombinant Ded1-His; assay: co-IP; purified Ded1 (4 µg) with one purified SRP protein (4-6 µg), no RNA, 300 µl 1X PBS with 2 mM MgCl2, 45 min at 30°C; recovered with Ded1-specific IgG cross-linked to protein A-Sepharose beads, 1 h at 18°C; 12% SDS-PAGE, Coomassie blue

binding result (Recombinant Ded1-His [1]) | binding result [2] | binding result (Recombinant Ded1-His [3]) | Binder
binds | binds |  | Recombinant His-tagged SRP14 (natural protein, S. cerevisiae, UniProt P38985 1-146, looked up, SRP14 of the yeast signal recognition particle; subcloned into the NdeI and XhoI sites of pET22b; source: E. coli Rosetta (DE3), pET22b, purified (Ni-NTA)) MANTGCLSPGAFLSKVPEFFQTANEKHITVRLTAKRLIEHDPVEGNLEFDSTNHPDYDVSKKASEISVSSRSDREYPLLIRMSYGSHDKKTKCSTVVKASELDQFWQEYSSVFKGGMQNLIKKKKKKSKNGTISKTGKKNKVAKKN
 |  | binds | Recombinant His-tagged Sec65 (natural protein, S. cerevisiae, UniProt P29478 1-273, looked up, Sec65 of the yeast signal recognition particle; source: E. coli Rosetta (DE3), pET19b, purified (Ni-NTA)) MPRLEEIDDFNDIDDLDMELAELDPSLRTPIAPKITPKVVRSQDQENPAFLPGTNNNSNSNNNSSNEKEQLSFINPKTGKVERSEAISKKDLEEVKRFQVLYPCYFDINRSHKEGRRVPKELAVENPLAKTMADAVRELGILCIFEGEKCHPQDFGNPGRIRVLFKENGQLIGAATKFKGGKRQLMKAVGEYMKRHPTTIESLREIPYGPDFDNIEFKKIPRVKGFKMNEIVPLHSPFLMGHPMTKSVYETPKITAAEKSFKPPKNKYKVVRR
